Results reported in paper PMC6879534, “Structural basis for DNA unwinding at forked dsDNA by two coordinating Pif1 helicases” (Nature Communications, 2019).

Assays:
[1] = target: BaPif1 F379A (Bacteroides fragilis (title/abstract: Bacteroides sp)) (UniProt A0A373G551); test: fluorescence polarization; details: Fluorescence polarization: 2.5 nM T15-3'F, buffer and temperature not in the material; crystals: 80 mM NaCl, 40 mM sodium cacodylate pH 6.0, 35% MPD, 12 mM …
[2] = target: BaPif1 H236A (Bacteroides fragilis (title/abstract: Bacteroides sp)) (UniProt A0A373G551); test: fluorescence polarization; details: Fluorescence polarization: 2.5 nM T15-3'F, buffer and temperature not in the material; crystals: 80 mM NaCl, 40 mM sodium cacodylate pH 6.0, 35% MPD, 12 mM …
[3] = target: BaPif1 wild type (Bacteroides fragilis (title/abstract: Bacteroides sp)) (UniProt A0A373G551); test: fluorescence polarization; details: Fluorescence polarization: 2.5 nM T15-3'F, buffer and temperature not in the material; crystals: 80 mM NaCl, 40 mM sodium cacodylate pH 6.0, 35% MPD, 12 mM …
BaPif1 [4] = details: ssDNA-stimulated ATPase
Chain of BaPif1 (5FHD_1 entry or part of it E323K): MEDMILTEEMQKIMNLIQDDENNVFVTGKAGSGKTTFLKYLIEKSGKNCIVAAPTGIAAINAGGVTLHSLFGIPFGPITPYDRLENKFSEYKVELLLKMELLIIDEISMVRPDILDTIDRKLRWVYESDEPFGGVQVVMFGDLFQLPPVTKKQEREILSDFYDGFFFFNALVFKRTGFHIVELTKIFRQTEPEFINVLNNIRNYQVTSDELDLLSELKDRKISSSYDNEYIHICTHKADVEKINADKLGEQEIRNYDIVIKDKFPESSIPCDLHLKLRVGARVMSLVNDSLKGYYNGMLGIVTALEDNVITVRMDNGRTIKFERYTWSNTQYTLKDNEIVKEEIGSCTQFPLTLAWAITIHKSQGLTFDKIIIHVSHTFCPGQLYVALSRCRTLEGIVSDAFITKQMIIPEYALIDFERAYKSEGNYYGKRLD

BaPif1 [5] = target: BaPif1 (Bacteroides fragilis, UniProt Z9XEH3VG65); details: ssDNA-stimulated ATPase
[6] = target: BaPif1 E323A/K405A (Bacteroides sp (abstract); Bacterioides fragilis (methods))

TTTTTTTTTTTTTTT [T15-3'F]
Kd [1]: 250 nM | Kd [2]: 200 nM | Kd [3]: 74 nM

Nc1ncnc2c1ncn2[C@@H]1O[C@H](COP(=O)(O)OP(=O)(O)OP(=O)(O)O)[C@@H](O)[C@H]1O [ATP]
ATP hydrolysis rate (BaPif1 [4]): The rates of ATP hydrolysis by both the E323A/K405A and E323K variants | ATP hydrolysis rate (BaPif1 [5]): only slightly increased relative to the wild type enzyme

BaPif1 E323A/K405A (enzyme)
rate of unwinding of the leading duplex (rapid chemical quench flow, single turnover) [6]: 33 s⁻¹ | rate of unwinding of the parental duplex (rapid chemical quench flow, single turnover) [6]: 31 s⁻¹
